Test results as given in the supplement of paper PMC9170038.

Test system: MS2 coat protein
Test: apparent KD of MS2 coat protein; designed switch direction (-1 OFF switch, 1 ON switch): -1; higher = weaker reporter binding
Outline: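 The reported apparent KD is a per-design median over clusters, from curve fits of normalised cluster fluorescence. Protein titrations used SNAP-549-labelled MS2 coat protein, doubled from 0.7 or 1.5 nM to 3 µM, in Tris-HCl pH 7.5 buffer with KCl, MgCl2, BSA, DTT, tRNA and Tween-20, with no input, 200 uM small-molecule ligand, or an oligonucleotide input. The RNA switches were transcribed on Illumina chips by stalled E. coli RNA polymerase.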

[1] = input ligand: microRNA oligo, concentration not stated
[2] = Eterna round: R95, input ligand: FMN 200 uM
[3] = Eterna round: R95, input ligand: microRNA oligo, concentration not stated
[4] = Eterna round: R95, input ligand: none

Sequence: GCUGGUCGAGGAUAUACAUGAGGAUCACCCAUGUGGUCACGUGACUUCGGUCACGAAUGUAGAAGGCGACCAGC [E3/3-A4] (Eterna round: R97, puzzle: Exclusion 3)
- apparent KD of MS2 coat protein (input ligand: FMN 200 uM): 65.8 nM
- apparent KD of MS2 coat protein (input ligand: none): 610 nM

Sequence: GCUUAACAUGUAGGAUAUGCGUGGCGAAGCUAUGCAGAAGGACAUGAGGAUCACCCAUGUUUUAGCGUCUGCGUACAGAUGCGU [JL ENG1 1.42] (Eterna round: R96, puzzle: Exclusion NG 1)
- apparent KD of MS2 coat protein (input ligand: FMN 200 uM): 178 nM
- apparent KD of MS2 coat protein [1]: 19.8 nM
- apparent KD of MS2 coat protein (input ligand: none): 22.4 nM

Sequence: GCUUAGGAAGGAUAUACAUGAGGAUCACCCAUGUUGACGCGGUAGGGCCCGGUAGCACGUAGAAGGUCUAUAGC [Eternabot (L2) Solution 46] (Eterna round: R97, puzzle: Exclusion 3)
- apparent KD of MS2 coat protein (input ligand: FMN 200 uM): 28.5 nM
- apparent KD of MS2 coat protein (input ligand: none): 19.4 nM

Sequence: GCUUGUGGGCAAGGAUAUCCUGCGCUGUUCUGGUUCGUGUCUGUCACAUGAGGAUCACCCAUGUGGGAGAAGGUGCCUUUGGCG [Design 65] (Eterna round: R96, puzzle: Exclusion NG 2)
- apparent KD of MS2 coat protein (input ligand: FMN 200 uM): 12.5 nM
- apparent KD of MS2 coat protein [1]: 10.5 nM
- apparent KD of MS2 coat protein (input ligand: none): 13.2 nM

Sequence: GGAAAGCAAGGAUAUACGAGGAGAAGGAGGAAAGUUAAAGGACAUGAGGAUCACCCAUGUAGAAGGUGCGAGAG [JR_Exclu2_Sub041] (puzzle: Exclusion 2)
- apparent KD of MS2 coat protein [2]: 30 nM
- apparent KD of MS2 coat protein [3]: 30.7 nM
- apparent KD of MS2 coat protein [4]: 34.6 nM

Sequence: GGAACGGCGAACAAGGCCCACAUGAGGAUCACCCAUGUGGCUGGGUGAUCUCGCUCGUCUUAUAUAUGGCUGGACCG [salish99-s2-off-006] (Eterna round: R96, puzzle: Sensor v2, turn-off variant)
- apparent KD of MS2 coat protein (input ligand: FMN 200 uM): 146 nM
- apparent KD of MS2 coat protein [1]: 23.8 nM
- apparent KD of MS2 coat protein (input ligand: none): 104 nM

Sequence: GGAAGGAAGGAACAAGUUAACAUGAGGAUCACCCAUGUUGACUUCAUGUGCACGCAAAGCGUGCAAGCUCGUCUUAU [AK-miRNA-r3-16] (Eterna round: R97, puzzle: Sensor, turn-off variant 1)
- apparent KD of MS2 coat protein (input ligand: FMN 200 uM): 18.3 nM
- apparent KD of MS2 coat protein (input ligand: none): 17.3 nM

Sequence: GGAAGGUCAGGAUAUGCGAGGGAGUGGGAAGUAGCAUGGUAGCAGAAGGGACAUGAGGAUCACCCAUGUUAGGA [JR_Exclu4_Sub0102] (puzzle: Exclusion 4)
- apparent KD of MS2 coat protein [2]: 35.2 nM
- apparent KD of MS2 coat protein [3]: 28.7 nM
- apparent KD of MS2 coat protein [4]: 40.7 nM

Sequence: GGAAUACAUGAGGAUCACCCAUGUAAGGAUAUGCUGAUUAACACGGAAUAAUUAUGCAGCAGAAGGUACAAAGG [Mat - Mod of my Eli Mod D48] (puzzle: Exclusion 1)
- apparent KD of MS2 coat protein [3]: 113 nM

Sequence: GGACAGGGAGGAUAUACUUGAGGAUCACCCAAGUCGUAUAAUCGAUGAUCACGCCGAAGUAGAAGGCCCAAAAC [EX3 #82] (Eterna round: R97, puzzle: Exclusion 3)
- apparent KD of MS2 coat protein (input ligand: FMN 200 uM): 36.1 nM
- apparent KD of MS2 coat protein (input ligand: none): 353 nM

Sequence: GGACCACAUGAGGAUCACCCAUGUCAGGAUAUGACGGCGUCGGCGAAAGCGGAGGCGGUCAGAAGGGACGGUAA [AK-MS2ROC-r4-exclusion1-10] (Eterna round: R97, puzzle: Exclusion 1)
- apparent KD of MS2 coat protein (input ligand: FMN 200 uM): 72.3 nM
- apparent KD of MS2 coat protein (input ligand: none): 32.4 nM

Sequence: GGACCGAUAGGAUAUGUCGUUGCAUACAUGAGGAUCACCCAUGUGAACCCUUGGUGAACUGCAGAAGGAUUGCGCA [Eternabot (L1) Solution 41] (Eterna round: R97, puzzle: Exclusion 5)
- apparent KD of MS2 coat protein (input ligand: FMN 200 uM): 240 nM
- apparent KD of MS2 coat protein (input ligand: none): 221 nM

Sequence: GGACCGAUUGUUAGGAUAUCGCACGGCUAGCCCAGCGAGAAGGGACAUGAGGAUCACCCAUGUGCGCUUAGCAC [Eternabot (L1) Solution 50] (Eterna round: R97, puzzle: Brourd's mod of Exclusion 4)
- apparent KD of MS2 coat protein (input ligand: FMN 200 uM): 156 nM
- apparent KD of MS2 coat protein (input ligand: none): 155 nM

Sequence: GGACCGUGUGUGAGGAUAUGCUGGUCCUUGGAUCAGCAGAAGGCACAUGAGGAUCACCCAUGUGGUGUCGGUCC [Eli bmx4 4.35] (Eterna round: R97, puzzle: Brourd's mod of Exclusion 4)
- apparent KD of MS2 coat protein (input ligand: FMN 200 uM): 182 nM
- apparent KD of MS2 coat protein (input ligand: none): 1780 nM

Sequence: GGACCUCCUGAGGAUAUUGUAUCACCUGACUGAUAAGAAGGCAGAACAUGAGGAUCACCCAUGUGGGUACUCGG [Bingo-Bango-15] (Eterna round: R97, puzzle: Exclusion 6)
- apparent KD of MS2 coat protein (input ligand: FMN 200 uM): 147 nM
- apparent KD of MS2 coat protein (input ligand: none): 190 nM

Sequence: GGAGAAGUAGGAUAUACAUGAGGAUCACCCAUGUUUUAAUUAAUAUAUGGAAUAGUAAGUAGAAGGAUUAAGUU [A finsh] (Eterna round: R97, puzzle: Exclusion 3)
- apparent KD of MS2 coat protein (input ligand: FMN 200 uM): 35.4 nM
- apparent KD of MS2 coat protein (input ligand: none): 38.4 nM

Sequence: GGAGAGGUAGGAUAUGGACCUUAGAACAUGAGGAUCACCCAUGUAGGACCACAUGAAAUGCCAGAAGGACCAGUCC [AK-MS2ROC-r4-exclusion5-5] (Eterna round: R97, puzzle: Exclusion 5)
- apparent KD of MS2 coat protein (input ligand: FMN 200 uM): 153 nM
- apparent KD of MS2 coat protein (input ligand: none): 145 nM

Sequence: GGAGCAAAUGUCAGGAUAUCGUGGUCGAUAGAUCACGAGAAGGGACAUGAGGAUCACCCAUGUCAGUCCGCUCC [Mat - Exclusion 4 - Eli Mod - D58] (Eterna round: R97, puzzle: Brourd's mod of Exclusion 4)
- apparent KD of MS2 coat protein (input ligand: FMN 200 uM): 22 nM
- apparent KD of MS2 coat protein (input ligand: none): 14.3 nM

Sequence: GGAGCGGAAGGAUAUGCUGCGGGAUUGCAUGGAAAGAAAAUACAUGAGGAUCACCCAUGUAGAAGGUCCGUGAA [Uslequ] (puzzle: Exclusion 2)
- apparent KD of MS2 coat protein [3]: 24.8 nM

Sequence: GGAGGAAAGAUAGGAUAUUCGAGGAAGGUGGUGAUAGAGACAUGAGGAUCACCCAUGUAAGGAGGGAAGAAGGGUCGAGGAGGA [AK ExNG2-V2-7] (Eterna round: R96, puzzle: Exclusion NG 2)
- apparent KD of MS2 coat protein (input ligand: FMN 200 uM): 411 nM
- apparent KD of MS2 coat protein [1]: 193 nM
- apparent KD of MS2 coat protein (input ligand: none): 142 nM

Sequence: GGAGGAACCGGAGGAUAUUGAUUUAAGCGGUUACGCAAGACAUGAGGAUCACCCAUGUGUCCGGACGAGAAGGCCGAAGAAGAA [ExNG2 3rd] (Eterna round: R96, puzzle: Exclusion NG 2)
- apparent KD of MS2 coat protein (input ligand: FMN 200 uM): 43.7 nM
- apparent KD of MS2 coat protein [1]: 30.6 nM
- apparent KD of MS2 coat protein (input ligand: none): 38.9 nM

Sequence: GGAGGACGAGCAGGAUAUUUUCACAUGAGGAUCACCCAUGUGUACUCAGGGUAAUCCUCCGCCGAAGAGAAGGGUUCGGAAGAA [Socedi] (Eterna round: R96, puzzle: Exclusion NG 2)
- apparent KD of MS2 coat protein (input ligand: FMN 200 uM): 91 nM
- apparent KD of MS2 coat protein [1]: 23 nM
- apparent KD of MS2 coat protein (input ligand: none): 57.1 nM

Sequence: GGAGGACGAGCAGGAUAUUUUCACAUGAGGAUCACCCAUGUGUAUUCAGGGUAAUCCUCCGCCGAAAAGAAGGGUUCGGAAGAA [JL ViennaUCT Socedi mod 2] (Eterna round: R96, puzzle: Exclusion NG 2)
- apparent KD of MS2 coat protein (input ligand: FMN 200 uM): 62.9 nM
- apparent KD of MS2 coat protein [1]: 39 nM
- apparent KD of MS2 coat protein (input ligand: none): 47.2 nM

Sequence: GGAGGGCUAGGAUAUGUAACAGGGAACUUGAGGAUCACCCAAGUGGCCGAAGGCACCCUGGCAGAAGGAGUAAAGA [Inmaislari] (Eterna round: R97, puzzle: Exclusion 5)
- apparent KD of MS2 coat protein (input ligand: FMN 200 uM): 71.6 nM
- apparent KD of MS2 coat protein (input ligand: none): 50.8 nM

Sequence: GGAGUCUUAGGAUAUACAGGUGUGAACAUCCGACGUUUCCAACAUGAGGAUCACCCAUGUAGAAGGAAGACGAG [Eternabot (Original) Solution 5] (Eterna round: R97, puzzle: Exclusion 2)
- apparent KD of MS2 coat protein (input ligand: FMN 200 uM): 824 nM
- apparent KD of MS2 coat protein (input ligand: none): 783 nM

Sequence: GGAGUGUGAGGAUAUAUGGUGAAGGUGAAGAGAGAGGAGGAGUAGAAGGUACAUGAGGAUCACCCAUGUUUAGG [JR_Exclu4_Sub072] (puzzle: Exclusion 4)
- apparent KD of MS2 coat protein [3]: 38.5 nM

Sequence: GGAUAAAACUGAGGAUAUGCGGAGAGAGAGAGAGCAGAAGGCAGACAUGAGGAUCACCCAUGUGAGUUCUCGAUAAGAAACACG [Prohibition 57 - Jieux - Exclusion NG 1] (Eterna round: R96, puzzle: Exclusion NG 1)
- apparent KD of MS2 coat protein (input ligand: FMN 200 uM): 107 nM
- apparent KD of MS2 coat protein [1]: 24 nM
- apparent KD of MS2 coat protein (input ligand: none): 31.8 nM

Sequence: GGAUAUAGGCGAGGAUAUACGCACCACUAACGAGUAGAAGGCGCACAUGAGGAUCACCCAUGUGAGUUCUCAAUAUGAUACACG [Prohibition 70 - Jieux - Exclusion NG 1] (Eterna round: R96, puzzle: Exclusion NG 1)
- apparent KD of MS2 coat protein (input ligand: FMN 200 uM): 14.9 nM
- apparent KD of MS2 coat protein [1]: 14.1 nM
- apparent KD of MS2 coat protein (input ligand: none): 18.6 nM

Sequence: GGAUCACAUGUCAGGAUAUCCGGGCAGAGUGGCCAGGAGAAGGGACAUGAGGAUCACCCAUGUUGCUUAAAAUU [Bierorerqu] (puzzle: Brourd's mod of Exclusion 4)
- apparent KD of MS2 coat protein [2]: 34.8 nM
- apparent KD of MS2 coat protein [3]: 69.9 nM
- apparent KD of MS2 coat protein [4]: 157 nM

Sequence: GGAUCGAAAGUGAGGAUAUGCUGGUCCUUGGAUCAGCAGAAGGCACAUGAGGAUCACCCAUGUGGGAACGGUCC [Eli bmx4 4.46] (Eterna round: R97, puzzle: Brourd's mod of Exclusion 4)
- apparent KD of MS2 coat protein (input ligand: FMN 200 uM): 1440 nM
- apparent KD of MS2 coat protein (input ligand: none): 298 nM

Sequence: GGAUCGAGUGUGAGGAUAUGCUGGUCCUUGGAUCAGCAGAAGGCACAUGAGGAUCACCCAUGUGACUAAGAUCC [Eli bmx4 4.75] (Eterna round: R97, puzzle: Brourd's mod of Exclusion 4)
- apparent KD of MS2 coat protein (input ligand: FMN 200 uM): 322 nM
- apparent KD of MS2 coat protein (input ligand: none): 29.8 nM

Sequence: GGAUCUAAGGUGAGGAUAUAGACUCCCAAAUGGAUCUAGAAGGCACUUGAGGAUCACCCAAGUAGUCUAGGGAA [Orered] (Eterna round: R97, puzzle: Brourd's mod of Exclusion 4)
- apparent KD of MS2 coat protein (input ligand: FMN 200 uM): 33.6 nM
- apparent KD of MS2 coat protein (input ligand: none): 16.9 nM

Sequence: GGAUCUUGGGUCAGGAUAUGCUGACAGCCAUGUCAGCAGAAGGGACAUGAGGAUCACCCAUGUGCUCGGUUUUG [Magic-19] (puzzle: Brourd's mod of Exclusion 4)
- apparent KD of MS2 coat protein [3]: 10.1 nM

Sequence: GGAUCUUGGGUCAGGAUAUGCUGAUAGUUAUGUCAGCAGAAGGGACAUGAGGAUCACCCAUGUGCUCGGUUUUG [Magic-18] (puzzle: Brourd's mod of Exclusion 4)
- apparent KD of MS2 coat protein [3]: 11.3 nM
